How the values were obtained:
FaDu cells [1] = experiment: Endocytosis assay of soluble EGFR-s10 scFv, FaDu; type: cell-based, human; settings: 30 min, confocal microscopy
Experimental: (§1) Cells were incubated with EGFR-s10 for 30 min at 4° C. or 37° C. Following a PBS wash, the cells were fixed with 2% paraformaldehyde and permeabilized with 0.1% TRITON® X-100. Blocking was accomplished by adding 3% BSA. Mouse ANTI-FLAG antibodies were added to the cells and labeled with FITC anti-mouse IgG. Nuclei were stained with DAPI, and cells were observed on a confocal microscope (TCS-SP5, Leica).
(§2) We produced soluble scFv from EGFR-PC10 and designated it as EGFR-s10. Target binding and internalization are essential requirements of LTL-targeting moieties. We investigated these features of EGFR-s10 in SCCHN cancer cell lines. FaDu cells and Ca9-22 cells were separately incubated with EGFR-s10 at 4° C. or 37° C. for 30 min and compared with isotypic IgG controls. […] (FIGS. 3A-B).

Ca9-22 cells [2] = experiment: Endocytosis assay of soluble EGFR-s10 scFv, Ca9-22; type: cell-based, human; settings: 30 min, confocal microscopy
Experimental: as §1, §2

human EGFR-Ex-Fc = target: T1, human EGFR-Ex-Fc (Homo sapiens, UniProt P00533); experiment: Recognition of human EGFR-Ex-Fc by EGFR-s10; type: binding
T1 construct: the extracellular domain of human EGFR-Fc fusion protein (EGFR-Ex-Fc); purchased R&D system
Description: (§3) EGFR s10 recognized both human and marine EGFR-Ex-Fc. This feature eliminates any requirements for a surrogate molecule to evaluate toxicity in murine platforms. After validating internalization of EGFR-s10 in target cells, we fabricated LTLs loaded with doxorubicin or vinorelbine (EGFR-s10-LD and EGFR-s10-LV, respectively) using a thin film method and PEGylation of EGFR-s10. […] The zeta-potentials were all higher than required to prevent formation of aggregates. […] In summary, EGFR-specific binding of EGFR-s10 was retained through chemical processing, and the resulting LTLs fulfilled the requirements of anti-neoplastic liposomal drugs, indicating suitability for further development.

marine EGFR-Ex-Fc = target: T2, marine EGFR-Ex-Fc (Mus musculus, UniProt Q01279); experiment: Recognition of murine EGFR-Ex-Fc by EGFR-s10; type: binding
T2 construct: the extracellular domain of human EGFR-Fc fusion protein (EGFR-Ex-Fc)
Description: as §3

[3] = Particle size by dynamic light scattering; type: physicochemical; settings: DLS at 25° C.
Experimental: (§4) The average particle size of liposomes was determined by dynamic light scattering (DLS) at 25° C. using Malvern Zetasizer Nano ZS (Malvern instruments) with a 633-nm laser and a detection angle of 90°. The zeta-potential of the liposomes was measured using laser Doppler electrophoresis on the Malvern Zetasizer Nano ZS.

[4] = Zeta-potential by laser Doppler electrophoresis; type: physicochemical
Experimental: as §4

FaDu cells [5] = experiment: In vitro cytotoxicity assay (WST-1), FaDu; type: cell-based, human
Experimental: (§5) FaDu and Ca9-22 cells were incubated with various concentrations of non-targeted liposomal drugs, or EGFR-s10-conjugated LTLs for 4, 8, 16 and 24 hr. The medium was replaced with complete medium for 48 hr, and 4-[3-(4-iodophenyl)-2-(4-nitrophenyl)-2H-5-tetrazolio]-1,3-benzene disulfonate (WST-1) was added at 0.5 mg/ml. After the cells were incubated for 3 hr at 37° C., the reaction products' absorbance at 440-nm was measured, and half maximal inhibitory concentrations (IC50) were calculated.
(§6) The cytotoxicity of EGFR-s10-conjugated LTLs was compared to that of non-targeting counterparts in human SCCHN cell lines. Cell viability was analyzed by the WST-1 assay and calculated as percentage of living cells.

Ca9-22 cells [6] = experiment: In vitro cytotoxicity assay (WST-1), Ca9-22; type: cell-based, human
Experimental: as §5, §6

[7] = system: Ca9-22 subcutaneous xenograft; experiment: Murine subcutaneous Ca9-22 xenograft therapeutic assay; type: in vivo; settings: 1.5 mg/kg twice a week for 4 weeks
Experimental: FaDu and Ca9-22 cells were inoculated s.c. into the flanks of 8- to 10-week-old Nod-SCID mice (1×10^6 cells/mouse). The diameters of the resulting tumors were measured twice per week, and tumor volume was calculated as follows: large diameter×(small diameter)^2×0.52. When tumors reached a mean volume of 350 mm^3, mice with similarly sized tumors were randomized into treatment cohorts (n=8 mice/group). Therapeutic regimens were injected intravenously (i.v.) as PBS, non-targeted liposomal drugs, or EGFR-s10 conjugated LTLs at 1 mg/kg, twice a week for 4 weeks, with a cumulative dose of 8 mg/kg for each group. The tumor volume was monitored twice a week. Premature death endpoints included weight loss greater than 5 g, inability to eat, or tumor volume exceeding 2000 mm^3.
The LTL treatment confers a statistically significant survival advantage over the non-targeting liposome (p=0.00153) and the median survival time of LTL group was 1.5-times longer than that of NTL group (94 days versus 60 days, respectively; FIG. 5D, upper and lower panels). We also tested singlet vinorelbine treatment in forms of free drug, NTL or LTL, with a dose of 1.5 mg/kg twice a week for 4 weeks in subcutaneously Ca9-22-xenografted NOD/SCID mice.

Row | Molecule | binding to cells (FaDu cells [1]; 4° C.) | internalization (FaDu cells [1]; 37° C.) | binding to cells (Ca9-22 cells [2]; Ca9-22, 4° C.) | internalization (Ca9-22 cells [2]; Ca9-22, 37° C.) | recognition of human EGFR-Ex-Fc (human EGFR-Ex-Fc) | recognition of marine EGFR-Ex-Fc (marine EGFR-Ex-Fc) | Z-average [3] | ζ-potential [4] | IC50 relative to non-targeting liposome (FaDu cells [5]) | IC50 relative to non-targeting liposome (Ca9-22 cells [6]) | mean tumor volume compared to NTL vinorelbine [7] | weight loss [7]
1 | EGFR-s10: soluble scFv generated from phage clone EGFR-PC10; amino acid sequence SEQ ID NO: 9 (protein, Whole scFv) scFv: EVQLVESGGGLVQPGGSLRLSCAASGFNLSSFWMSWVRQAPGKGLEWVANINHDGSDKYYVDSVKGRFSISRDNTKNSVYLQMDSLRGEDTAVYYCAKGKSLYDGSALDMWGQGTMVTVSSGGGGSGGGGSGGGGSDIVMTQSPSTLSASVGDRVTITCRASQTIGRWLAWYQQKPGKAPKLLIYGASSLQSGVPSRFSGSGSGTDFTLTISSLQPEDFATYYCQQSYSTLWTFGQGTKLEIKR | bound to the cell membrane | Internalization of EGFR-s10 (scFvs) as cytoplasmic aggregates was observed | bound to the cell membrane | Internalization of EGFR-s10 (scFvs) as cytoplasmic aggregates was observed | recognized | recognized | – | – | – | – | – | –
2 | EGFR-s10-LD (conjugate, left off: small tags and cut ends) scFv: EVQLVESGGGLVQPGGSLRLSCAASGFNLSSFWMSWVRQAPGKGLEWVANINHDGSDKYYVDSVKGRFSISRDNTKNSVYLQMDSLRGEDTAVYYCAKGKSLYDGSALDMWGQGTMVTVSSGGGGSGGGGSGGGGSDIVMTQSPSTLSASVGDRVTITCRASQTIGRWLAWYQQKPGKAPKLLIYGASSLQSGVPSRFSGSGSGTDFTLTISSLQPEDFATYYCQQSYSTLWTFGQGTKLEIKR | – | – | – | – | – | – | 125 nm·days | −28.1 mV | 0.33 fold | 0.0028 fold | – | –
3 | EGFR-s10-LV (conjugate, left off: small tags and cut ends) scFv: EVQLVESGGGLVQPGGSLRLSCAASGFNLSSFWMSWVRQAPGKGLEWVANINHDGSDKYYVDSVKGRFSISRDNTKNSVYLQMDSLRGEDTAVYYCAKGKSLYDGSALDMWGQGTMVTVSSGGGGSGGGGSGGGGSDIVMTQSPSTLSASVGDRVTITCRASQTIGRWLAWYQQKPGKAPKLLIYGASSLQSGVPSRFSGSGSGTDFTLTISSLQPEDFATYYCQQSYSTLWTFGQGTKLEIKR | – | – | – | – | – | – | 115.2 nm·days | −29.2 mV | 0.21 fold | 0.14 fold | smaller | no weight loss was observed
